Source: paper PMC9482650, “Quantitative fragmentomics allow affinity mapping of interactomes” (Nature Communications, 2022)

Molecular target: T1, SIPA1L2, Q9P2F8
T1 sequence (Q9P2F8 945-1036, limits assumed, looked up): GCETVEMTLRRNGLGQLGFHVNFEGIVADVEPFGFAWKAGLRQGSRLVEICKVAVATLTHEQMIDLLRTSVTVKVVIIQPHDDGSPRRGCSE
Experiment: holdup assay
Parameters: key: below the threshold = too weak to quantify, mostly under pKd 3.1 to 4
Conditions: modified: phospho on T at position -1 from the C-terminal residue

Row | Binder | pKd
1 | RRVRKLPSTTL [RPS6KA1_-1P, Q15418] | below the threshold

Same assay, conditions: modified: phospho on T at position -2 from the C-terminal residue

Row | Binder | pKd
2 | RRVRKLPSTTL [RPS6KA1_-2P, Q15418] | below the threshold

Same assay, conditions: plain residues with an end cap or a label only (N-terminal biotin on a linker: ado-ado)

Row | Binder | pKd
3 | EYRKDNKVAA [LSM14A, Q8ND56;Q8ND56-2] | below the threshold
4 | GDHLDRRVVL [VAC14, Q08AM6] | below the threshold
5 | LRYARPADAL [PPP1R3G, B7ZBB8] | below the threshold
6 | SKSLERATQL [COMMD3, Q9UBI1] | 3.51
7 | QELLEYETTV [XKR7, Q5GH72] | below the threshold
8 | REVVMRVTTV [MARCHF9, Q86YJ5] | below the threshold
9 | WRSKRTDTLL [RAMP3, O60896] | below the threshold
10 | VISERNSTTV [C3AR1, Q16581] | below the threshold
11 | PDGEMMEVLI [AMOTL1, Q8IY63] | below the threshold
12 | FEEEAEEEVA [TUBB4B, P68371] | below the threshold
13 | LETREPTNTL [GRIP1, Q9Y3R0] | below the threshold
14 | TMQMSLKDLL [GLA, P06280] | below the threshold
15 | RALRASESGI [ADGRE5, P48960] | below the threshold
16 | PMESGICTIV [TTC24, A2A3L6] | below the threshold
17 | GCQGETEDVL [PTH2R, P49190] | below the threshold
18 | SRPRPDDLEI [GJA1, P17302] | below the threshold
19 | NVYGTESVKI [GRIA3, P42263] | below the threshold
20 | ANGLMQTSKL [SSTR5, P35346] | below the threshold
21 | ETSLVKGIDI [DENND5A, Q6IQ26] | below the threshold
22 | NASRTRITFV [MCM7, P33993] | below the threshold
23 | QSPPNIYYKV [EFNB3, Q15768] | below the threshold
24 | PAPGQHTTQI [STK16, O75716] | below the threshold
25 | DSATVRTYSC [PPFIA1, Q13136] | below the threshold
26 | PASAKGPLGV [CLDN19, Q8N6F1] | below the threshold
27 | QFTLRHWLKV [SLC6A3, Q01959] | 3.89

Row | Binder | pKd
28 | RELVMRVTTV [MARCHF4, Q9P2E8] | below the threshold
29 | DQPLEKSTKL [AKAP10, O43572] | below the threshold
30 | LEPAVRSSEL [SH2D3C, Q8N5H7] | below the threshold
31 | GQSVDLVFPV [AKIP1, Q9NQ31] | below the threshold
32 | SMLNRRTTPV [CACNG4, Q9UBN1] | below the threshold
33 | LSEFKAMDSF [CTNNA2, P26232] | below the threshold
34 | EEDTAEKDEL [HSPA5, P11021] | below the threshold
35 | PELESKESVL [SLC1A4, P43007] | below the threshold
36 | RQSILFSTEV [BCR, P11274] | below the threshold
37 | PLDSQQHTEV [FAT1, Q14517] | below the threshold
38 | SRPTKGPTLL [PLEKHH2, Q8IVE3] | below the threshold
39 | LTAQEQPVYI [APBA1, Q02410] | below the threshold
40 | RTQSSDSAYV [GJD2, Q9UKL4] | below the threshold
41 | RPGFASESKV [ADRB1, P08588] | below the threshold
42 | GQETPLNTFC [MAP7D2, Q96T17] | below the threshold
43 | DFRHKSSFVI [JAM3, Q9BX67] | below the threshold
44 | QYPGSPDSWV [PKP4, Q99569] | below the threshold
45 | LGHTPFVDEL [UQCRC2, P22695] | below the threshold
46 | YPKQMPLSQV [FZD8, Q9H461] | below the threshold
47 | GDGLDDEIAV [NOS1AP, O75052] | below the threshold
48 | QNRIITKTDV [SMCHD1, A6NHR9] | below the threshold
49 | AEDEEIQTKM [UNC93A, Q86WB7] | below the threshold
50 | SVISRREWYV [NECTIN3, Q9NQS3] | below the threshold
51 | NRVDSKETEC [ADAM17, P78536] | below the threshold
